Our source for the EC50 values is patent US8729030B2 (Affymax, Inc., priority 2003, dated 2014).

The assay deals with T1, human EPO-R (Homo sapiens, UniProt P19235).
T1 construct: expressed in transfected cells; host or cells: murine pre-B-cell line Baf3 (BaF3/Gal4/Elk/EPOR)
T1 sequence (P19235 25-508): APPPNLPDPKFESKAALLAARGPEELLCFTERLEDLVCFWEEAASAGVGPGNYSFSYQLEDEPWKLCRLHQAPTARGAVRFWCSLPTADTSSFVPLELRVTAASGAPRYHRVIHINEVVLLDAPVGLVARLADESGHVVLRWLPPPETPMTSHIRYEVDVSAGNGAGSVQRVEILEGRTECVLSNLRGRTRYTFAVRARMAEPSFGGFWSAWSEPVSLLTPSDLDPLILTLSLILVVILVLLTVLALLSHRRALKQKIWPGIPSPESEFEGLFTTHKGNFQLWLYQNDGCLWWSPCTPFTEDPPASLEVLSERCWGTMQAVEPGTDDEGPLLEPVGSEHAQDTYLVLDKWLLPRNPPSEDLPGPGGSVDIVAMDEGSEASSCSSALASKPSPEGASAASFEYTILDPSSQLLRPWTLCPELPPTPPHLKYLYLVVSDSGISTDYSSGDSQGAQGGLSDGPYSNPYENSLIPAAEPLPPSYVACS
The assay can be described thus: Proliferation assay (BaF3/Gal4/Elk/EPOR cells, MTT). The class given is cell-based. The note with it: Table 6, 48 h. As to the method: This assay is based upon a murine pre-B-cell line, Baf3, transfected to express human EPO-R. Proliferation of the resulting cell line, BaF3/Gal4/Elk/EPOR, is dependent on EPO-R activation. The degree of cell proliferation is quantitated using MTT, where the signal in the MTT assay is proportional to the number of viable cells.
The BaF3/Gal4/Elk/EPOR cells are cultured in spinner flasks in DMEM/F12 medium (Gibco) supplemented with 10% FBS (Hyclone) and 2% WEHI-3 supernatant (ATCC #TIB-68). Cultured cells are starved overnight, in a spinner flask at a cell density of 1×10^6 cells/ml, in DMEM/F12 medium supplemented with 10% FBS and 0.1% WEHI-3 supernatant. […] Absorbance of each well at a wavelength of 595 nm is then measured by spectrophotometry. Plots of the absorbance readings versus test peptide concentration are constructed and the EC50 calculated using Graph Pad software. The concentration of test peptide that results in a half-maximal absorbance is recorded as the EC50[See Table 2: Proliferation EC50].
The BaF3/Gal4/Elk/EPOR cells are cultured in spinner flasks in DMEM/F12 medium (Gibco) supplemented with 10% FBS (Hyclone) and 2% WEHI-3 supernatant (ATCC #TIB-68). […] Absorbance of each well at a wavelength of 595 nm is then measured by spectrophotometry. Plots of the absorbance readings versus test peptide concentration are constructed and the EC50 calculated using Graph Pad software. […]

Bridges are numbered along the chain shown (N, C = ends). Where no end group is shown, it is not given here. [ ]: non-standard residue; d: D form. 1Nal = N[C@@H](Cc1cccc2ccccc12)C(=O)O; Sar = CNCC(=O)O

For “peptide dimer of monomers (AcG)GLYACHMGPIT(1-nal)VCQPLR(MeG)K (SEQ ID NO: 2) (Ac-GGLYACHMGPIT[1Nal]VCQPLR[Sar]K; disulfide 6-15 (inferred); not fully specified (residue 1); printed as (AcG)GLYACHMGPIT(1-nal)VCQPLR(MeG)K; also: homodimer, dimer linkage not given here) [Peptide I]”, the response was half-maximal at 0.165 nM (EC50).
